Source: patent US20150064273A1, “Mesenchymal Stem Cells Conditioned Medium and Methods of Generating and Using the Same” (Gamida-Cell Ltd., priority 2012, published 2015)

Columns and labels:
mesenchymal stem cells [1] = test: Mesenchymal stem cell culture with growth factors with or without nicotinamide, cell counts; type: cell-based; conditions: growth factor 10 or 50 ng/ml with 5 mM NAM; three or four passages
Experimental: Isolation: Bone marrow derived and adipose tissue derived mesenchymal cells were isolated based on their plastic adherence potential in expansion medium containing: High glucose DMEM and 10% Fetal Bovine Serum (FBS, Hyclone, Logan, Utah, USA) supplemented with 0.05 mg/ml Gentamicin (Sigma) and 2 mM L-glutamine (Biological Industries, Israel). Cells were allowed to adhere for 3-4 days and non-adherent cells were washed out with medium changes. The medium was further exchanged with fresh medium every 3-4 days.
Maintenance and expansion: Once adherent cells reached approximately 80-90% confluency, they were detached with 0.25% trypsin-EDTA (Sigma), washed twice in DMEM and 10% Fetal Bovine Serum, with centrifugation, 400 g, 5 minutes, and re-plated at a 1:2 to 1:1000 dilution under the same culture conditions.
Measurement of number of cells in culture: Cell number was measured using Cedex Automated Cell Counter (Innovatis). The cells were diluted 1:2 in Trypan Blue (Sigma) and cell number was measured automatically under microscope.
Treatment of mesenchymal cultures with nicotinamide: Mesenchymal cultures were initiated as described above, and supplemented with nicotinamide 1-15 mM alone, or in combination with growth factors or growth factors alone, incubated at 37° C. in a humidified atmosphere of 5% CO2 in air. At each passage and at each medium exchange, the cultures were supplemented with mesenchymal medium, nicotinamide and growth factors.
Mesenchymal stem cells were selected and cultured in the presence of particular growth factors (basic fibroblast growth factor—bFGF, heparin binding epidermal growth factor—HB-EGF, fibroblast growth factor 4—FGF-4 and platelet derived growth factor, homodimer, subunit B, PDGF-BB) in the presence and absence of nicotinamide for three or four passages and the number and size of the cells was calculated.
Two concentrations (10 and 50 ng/ml) of each one of the following factors were examined.
In addition, the influence of the combination: 5 mM NAM+50 ng/ml FGF4+50 ng/ml PDGF-BB was examined in comparison to an individual supplement.

MSCs = conditions: Tamama et al. 2010; cited from earlier work
MSC = conditions: Stewart et al. 2010; cited from earlier work
mesenchymal stem cells [2] = test: Percent of MSC (CD105+CD45−) analyzed by FACS; type: cell-based; conditions: FGF4 or PDGF-BB 50 ng/ml, NAM 5 mM
Experimental: Four different batches of MSC cultures were treated with FGF4 (50 ng/ml), NAM (5 mM) or a combination of FGF4+NAM. Percent of MSC (CD105+CD45−) was analyzed by FACS. FIGS. 7A-D are graphs illustrating that MSC cultures treated with PDGF-BB or a combination of PDGF-BB+NAM comprise a higher fraction of cells other than MSCs that contaminates the cultures as compared to MSC cultured in the absence of PDGF-BB. Four different batches of MSC cultures were treated with PDGF-BB (50 ng/ml), NAM (5 mM) or a combination of PDGF-BB+NAM. Percent of MSC (CD105+CD45−) was analyzed by FACS. Surface antigen analysis: At different time points the cells were detached with 0.25% trypsin-EDTA. […] The cells were then washed in the above buffer and analyzed using a FACScalibur® flow cytometer (Becton Dickinson). […] Emission of 10000 cells was measured using logarithmic amplification, and analyzed using the CellQuest software (Becton Dickinson). Cells stained with FITC- and PE-conjugated isotype control antibodies were used to determine background fluorescence.

Row | Molecule | effect on the ability of nicotinamide to increase proliferation of mesenchymal stem cells (mesenchymal stem cells [1]) | other results
1 | basic FGF: basic fibroblast growth factor (bFGF, FGF2) | negative effect | –
2 | EGF: Epidermal growth factor | – | increase in number of colony-forming units (MSCs): 25%
3 | HB-EGF: heparin-binding EGF-like growth factor (protein, UniProt Q99075 63-148, looked up) Heparin-binding EGF-like …: DLQEADLDLLRVTLSSKPQALATPNKEEHGKRKKKGKGLGKKRDPCLRKYKDFCIHGECKYVKELRAPSCICHPGYHGERCHGLSL | negative effect | –
4 | BMP-3: member of the transforming growth factor beta family, known to enhance bone differentiation (protein, UniProt P12645 363-472, looked up) Bone morphogenetic protein 3: QWIEPRNCARRYLKVDFADIGWSEWIISPKSFDAYYCSGACQFPMPKSLKPSNHATIQSIVRAVGVVPGIPEPCCVPEKMSSLSILFFDENKNVVLKVYPNMTVESCACR | – | increase in MSC proliferation (MSC): threefold
5 | PDGF-BB: platelet derived growth factor, homodimer, subunit B (protein, UniProt P01127 82-190, looked up) Platelet-derived growth …: SLGSLTIAEPAMIAECKTRTEVFEISRRLIDRTNANFLVWPPCVEVQRCSGCCNNRNVQCRPTQVQLRPVQVRKIEIVRKKPIFKKATVTLEDHLACKCETVAAARPVT | inconsistent effect | Percent of MSC (CD105+CD45−) in culture (mesenchymal stem cells [2]): contaminated with a higher fraction of cells other than MSCs
